These results are taken from PMC4860851 (Cell Discovery, 2015).

The target of data set [1] is Recombinant H1 HA with His Tag from Influenza A/Brisbane/59/2007 H1N1. The data set is described as follows: SPR. The settings on record: read off a plot.
Data set [2] concerns the target T1, HA Ig (extracellular part of the HA protein of PR8 influenza fused to human IgG1), biotin-conjugated (influenza A/Puerto Rico/8/34 H1N1 (PR8), UniProt P03452 18-528, biotin).
T1 construct: also called biotinylated HA Ig
The data set is described as follows: far-Western, overlay or dot blot. The settings on record: both partners purified.

Data set [3] can be described thus: full-length expression in HEK 293T (data not shown). The settings on record: glycan lost; control: WT full-length Ncr1.
Data set [4] is described as follows: FACS surface staining of BW transfectants. The settings on record: glycan lost; control: WT Ncr1 zeta.
A short description of data set [5]: recognition of fusion proteins by eight anti-Ncr1 mAbs. The settings on record: glycan lost; control: WT Ncr1 Ig.
A short description of data set [6]: FACS, lentiviral expression in IL2-activated human NK cells. The settings on record: glycan lost; control: WT full-length Ncr1.

Turning to “Ncr1 Ig fusion protein (extracellular part of mouse Ncr1 fused to human IgG1) (from UniProt Q8C567) T222A; T225A”, the response stood at 35 RU in data set [1] (parent: est. 190), 85 RU in data set [1] (parent: est. 380), 150 RU in data set [1] (parent: est. 560) and 210 RU in data set [1] (parent: est. 700).

B1: Ncr1 Ig fusion protein (extracellular part of mouse Ncr1 fused to human IgG1) (Fc fusion, UniProt Q8C567 17-255, looked up)
chain: QRINTEKETLPKPIIWAKPSIMVTNGNSVNIWCQGAQSASEYQLYFEGSFFALERPKPSRSMNKVRFFISQMTSHTAGIYTCFYQSGELWSKSSNPLKLVVTGLYDTPNLWVYPRPEVTLGENVTFFCQLKTATSKFFLLKERGSNHIQNKYGNIQAEFPMGPVTRAHRGTYRCFGSYNDYAWSFPSEPVTLLITGGVENSSLAPTDPTSSLDYWEFDLSTNESGLQKDSAFWDHTTQN
notes: Carries N-linked glycans (N139, N216, N238) and putative O-linked glycans (T222, T225); also called WT Ncr1 Ig; WT Ncr1
As to B1, the binding result in data set [2] is on record as “binds”.

B2: Ncr1: Ncr1 T222A (protein)
parent chain: MLPTLTALLCLGLCLSQRINTEKETLPKPIIWAKPSIMVTNGNSVNIWCQGAQSASEYQLYFEGSFFALERPKPSRSMNKVRFFISQMTSHTAGIYTCFYQSGELWSKSSNPLKLVVTGLYDTPNLWVYPRPEVTLGENVTFFCQLKTATSKFFLLKERGSNHIQNKYGNIQAEFPMGPVTRAHRGTYRCFGSYNDYAWSFPSEPVTLLITGGVENSSLAPTDPTSSLDYWEFDLSTNESGLQKDSAFWDHTTQNLIRIGLACIILITLVWLLTEDWLSKRKDHEEANRLTNWECRRRWRMQHYFEEEQRNAISMMELKATPGAL
For B2, in data set [3], the localisation_or_trafficking result is given as “no change”. Further, in data set [4], the expression_or_secretion entry was “no change”. In addition, the stability_or_folding entry in data set [5] is recorded as “no change”.

B3: Ncr1: Ncr1 T222 225A (protein)
parent chain: MLPTLTALLCLGLCLSQRINTEKETLPKPIIWAKPSIMVTNGNSVNIWCQGAQSASEYQLYFEGSFFALERPKPSRSMNKVRFFISQMTSHTAGIYTCFYQSGELWSKSSNPLKLVVTGLYDTPNLWVYPRPEVTLGENVTFFCQLKTATSKFFLLKERGSNHIQNKYGNIQAEFPMGPVTRAHRGTYRCFGSYNDYAWSFPSEPVTLLITGGVENSSLAPTDPTSSLDYWEFDLSTNESGLQKDSAFWDHTTQNLIRIGLACIILITLVWLLTEDWLSKRKDHEEANRLTNWECRRRWRMQHYFEEEQRNAISMMELKATPGAL
As to B3, the expression_or_secretion entry in data set [6] and in data set [4] was “no change” in each case. Also, the localisation_or_trafficking entry in data set [3] is “no change”. Besides, the stability_or_folding result in data set [5] is on record as “no change”.

B4: Ncr1: Ncr1 N139 216 238A (protein)
parent chain: MLPTLTALLCLGLCLSQRINTEKETLPKPIIWAKPSIMVTNGNSVNIWCQGAQSASEYQLYFEGSFFALERPKPSRSMNKVRFFISQMTSHTAGIYTCFYQSGELWSKSSNPLKLVVTGLYDTPNLWVYPRPEVTLGENVTFFCQLKTATSKFFLLKERGSNHIQNKYGNIQAEFPMGPVTRAHRGTYRCFGSYNDYAWSFPSEPVTLLITGGVENSSLAPTDPTSSLDYWEFDLSTNESGLQKDSAFWDHTTQNLIRIGLACIILITLVWLLTEDWLSKRKDHEEANRLTNWECRRRWRMQHYFEEEQRNAISMMELKATPGAL
B4: the expression_or_secretion entry in data set [6] was “abolishes”; in data set [4], “decreases”. Also, in data set [3], the localisation_or_trafficking entry is listed as “decreases”. Besides, the stability_or_folding entry in data set [5] is reported as “no change”.

B5: Ncr1: Ncr1 T225A (protein)
parent chain: MLPTLTALLCLGLCLSQRINTEKETLPKPIIWAKPSIMVTNGNSVNIWCQGAQSASEYQLYFEGSFFALERPKPSRSMNKVRFFISQMTSHTAGIYTCFYQSGELWSKSSNPLKLVVTGLYDTPNLWVYPRPEVTLGENVTFFCQLKTATSKFFLLKERGSNHIQNKYGNIQAEFPMGPVTRAHRGTYRCFGSYNDYAWSFPSEPVTLLITGGVENSSLAPTDPTSSLDYWEFDLSTNESGLQKDSAFWDHTTQNLIRIGLACIILITLVWLLTEDWLSKRKDHEEANRLTNWECRRRWRMQHYFEEEQRNAISMMELKATPGAL
For the molecule B5, the localisation_or_trafficking result in data set [3] is “no change”. Further, the expression_or_secretion result in data set [4] is on record as “no change”. In addition, the stability_or_folding result in data set [5] is on record as “no change”.
